Results from paper PMC8333309, “Mechanism of LolCDE as a molecular extruder of bacterial triacylated lipoproteins” (Nature Communications, 2021).

Substrate: Nc1ncnc2c1ncn2[C@@H]1O[C@H](COP(=O)(O)OP(=O)(O)OP(=O)(O)O)[C@@H](O)[C@H]1O
Assay: colorimetric phosphate-release ATPase assay
Format: biochemical, Escherichia coli
Details: LolCDE in POPG nanodiscs, MgCl2, 25 mM Tris pH 8, 150 mM NaCl, 37 °C, basal activity, no lipoprotein added

B1: LolCDE (Escherichia coli K-12) (protein)
chain: MNKILLQCDNLCKRYQEGSVQTDVLHNVSFSVGEGEMMAIVGSSGSGKSTLLHLLGGLDTPTSGDVIFNGQPMSKLSSAAKAELRNQKLGFIYQFHHLLPDFTALENVAMPLLIGKKKPAEINSRALEMLKAVGLDHRANHRPSELSGGERQRVAIARALVNNPRLVLADEPTGNLDARNADSIFQLLGELNRLQGTAFLVVTHDLQLAKRMSRQLEMRDGRLTAELSLMGAE
notes: co-expressed in E. coli BL21(DE3); purified in DDM, reconstituted into MSP1D1/POPG nanodiscs; co-purifies with lipoprotein; with Lipoprotein-releasing system transmembrane protein LolC; Lipoprotein-releasing system transmembrane protein LolE
Work on B1 yielded a Km of 190 ± 50 µM.
